Experiment: soluble on expression in E. coli; label from the status in PepcDB or PDB records

Sequence	soluble on expression in E. coli
TEKKYIVALDQGTTSSRAVVMDHDANIISVSQREFEQIYPKPGWVEHDPMEIWATQSSTLVEVLAKADISSDQIAAIGITNQRETTIVWEKETGKPIYNAIVWQCRRTAEICEHLKRDGLEDYIRSNTGLVIDPYFSGTKVKWILDHVEGSRERARRGELLFGTVDTWLIWKMTQGRVHVTDYTNASRTMLFNIHTLDWDDKMLEVLDIPREMLPEVRRSSEVYGQTNIDGKGGTRIPISGIAGDQQAALFGQLCVKEGMAKNTYGTGCFMLMNTGEKAVKSENGLLTTIACGPTGEVNYALEGAVFMAGASIQWLRDEMKLINDAYDSEYFATKVQNTNGVYVVPAFTGLGAPYWDPYARGAIFGLTRGVNANHIIRATLESIAYQTRDVLEAMQADSGIRLHALRVDGGAVANNFLMQFQSDILGTRVERPEVREVTALGAAYLAGLAVGFWQNLDELQEKAVIEREFRPGIETTERNYRYAGWKKAVKRAMAWEEHDQLYTRASQPELAPEDPEDLEHHHHHH	soluble
METPQDSRQSIQKPPSPAAEEDKEEQPGGNAVVSGAPEERIDKKELVLNWLAQGEFDQGEGAQGEVAGGEQAQEEPAPLSPAQEATGGEEEGENKEGEMEGRHAGDGASSSEDDSILEEGGENIDQQPPQQEAASPDSIRNPHVLNRLAQLRYRRTRFTHFQLHDLERLFQETRYPSLRARRDLARWMGVDECDVQNWFRMRRALFQRNRRVLMFCELPPLPQSDSP	soluble
LQTVCLKGTKHMKCFLAFTQTKTFHEASEDCISRGGTLSTPQTGSENDALYEYLRQSVGNEAEIWLGLNKRWSRYFWVDMTGTRIAYKNWEHSSDAQPDPSNWENCAVLSGAANGKWFGKRCRDQLPYICQFGI	soluble
MGSDKIHHHHHHMSGPQKANDLLGQIPKTKGLPPVHLWNPDFCGDIDMRIARDGTWYYLGTPIGRKPMVKLFSTIIRRDGDDYFLITPVEKVGIKVDDAPFVAIAVEMEGEGEAQVLRFTTNVDETTEAGAEHLIRVEIDPVTQEPAPYVHVRTNLEALIHRNVFYQLVELAVSREIDGQRWLGVWSGGEFFRIGLEP	not soluble
MGSDKIHHHHHHMIMKVVVKVGSNLLVGSSGLRKSYIAELCREVARLKSQGHEISIITSGARAAGFTYLGKGKRTQDLHIKQALCAVGQVQLMKVYENAFDFYGIKIAQILLTRDTFSNRKRYLNLRNTLIGLSEFDVVPIVNENDTVATEEITLGDNDTLAAMFSIAWDADFLVLFTTVDGVIDENGKLVERFDESVKLKDMGKSSWGTGGIRSKIESALMASRCGVKATICSGNDVSNLTRFVKGEPVGTVFEPQGRLKAKKAWIAFLSEPAGKIYVNKGAEEALKSGNSLLPVGVTGVEGTFDVGDVVEIVNEEGELVGRGIVNYSSSDLEKIAGHKSSDLKKILGYEGNKVVVHIDNMWVA	not soluble
IRRVLVPVDTSEERARNQAKYLTSLPNIPDSVEATVLFVFPHQDYKGAPSHDFEEVDAAVTAAEHLEAKGISVERVAVGGEVGRKILDAATDRDADSIVIGGRKRSGIANVLLGGTTQDIMLAAERPVTLTG	not soluble
AWKGEVLANNEAGQVTSIIYNPGDVITIVAAGWASYGPTQKWGPQGDREHPDQGLICHDAFCGALVMKIGNSGTIPVNTGLFRWVAPNNVQGAITLIYNDVPGTYGNNSGSFSVNIGKDQS	soluble
MNQPFLSVVIATFNVAEVLRECLHSLASQTFRDFEVVIQDGASTDGTLAVAQEAAGRLPRLSLASVADSGIYDAWNRALPRVTGDWVLFLGSDDTLAGPDVLAQCARRLADLPPQVLYACGDALEVYPDGSSRAVTCTAEGATRRMADHIPFCHSSLWHRACLFEARHFDATLRIAADYDLICRTWPHDGVGHTLGITVTHMGVGGVSSSPAHRLRTQWELVRVAARHGHGAFSRRRLVPLCKAVGLWVLCRLAGRRASVMLDRLRVMRGLPPCWTTADPARVGGRDSARGDALEHHHHHH	not soluble
MAHHHHHHMGTLEAQTQGPGSMAIDPNSIGAVTEPMLFEWTDRDTLLYAIGVGAGTGDLAFTTENSHGIDQQVLPTYAVICCPAFGAAAKVGTFNPAALLHGSQGIRLHAPLPAAGKLSVVTEVADIQDKGEGKNAIVVLRGRGCDPESGSLVAETLTTLVLRGQGGFGGARGERPAAPEFPDRHPDARIDMPTREDQALIYRLSGDRNPLHSDPWFATQLAGFPKPILHGLCTYGVAGRALVAELGGGVAANITSIAARFTKPVFPGETLSTVIWRTEPGRAVFRTEVAGSDGAEARVVLDDGAVEYVAG	soluble
MRGSHHHHHHGSGSMHQRQTLYQLMDGLNTFYQQSLQQPVATSARQYLEKRGLSHEVIARFAIGFAPPGWDNVLKRFGGNPENRQSLIDAGMLVTNDQGRSYDRFRERVMFPIRDKRGRVIGFGGRVLGNDTPKYLNSPETDIFHKGRQLYGLYEAQQDNAEPNRLLVVEGYMDVVALAQYGINYAVASLGTSTTADHIQLLFRATNNVICCYDGDRAGRDAAWRALETALPYMTDGRQLRFMFLPDGEDPDTLVRKEGKEAFEARMEQAMPLSAFLFNSLMPQVDLSTPDGRARLSTLALPLISQVPGETLRIYLRQELGNKLGILDDSQLERLMPK	soluble
MALLQISEPGLSAAPHQRRLAAGIDLGTTNSLVATVRSGQAETLPDHEGRHLLPSVVHYQQQGHTVGYAARDNAAQDTANTISSVKRMMGRSLADIQTRYPHLPYRFKASVNGLPMIDTAAGLLNPVRVSADILKALAARASESLSGELDGVVITVPAYFDDAQRQGTKDAARLAGLHVLRLLNEPTAAAIAYGLDSGKEGVIAVYDLGGGTFDISILRLSRGVFEVLATGGDSALGGDDFDHLLADYIREQAGIADRSDNRVQRELLDAAIAAKIALSDADTVRVNVAGWQGEITREQFNDLISALVKRTLLACRRALKDAGVEPQDVLEVVMVGGSTRVPLVRERVGEFFGRTPLTAIDPDKVVAIGAAIQADILVGNKPDSEMLLLDVIPLSLGLETMGGLVEKVIPRNTTIPVARAQDFTTFKDGQTAMSIHVMQGERELVQDCRSLARFALRGIPPLPAGGAHIRVTFQVDADGLLSVTAMEKSTGVEASIQVKPSYGLTDGEIASMIKDSMSFAEQDVKARMLAEQKVEAARVLESLTGALTADAALLSAAERQCIDDAAAHLSAVAQGDDVDAIEQAIKNVDKQTQEFAARRMDQSVRRALKGHSVDEV	not soluble
MGSDKIHHHHHHMKILYIITGLPTGGAEMMLYKLLSQINQERFEPIVVSLMDRGTLGDRIEALGIPVHTIGMNRGGIPMPVDVWRLVHLVDRLQPDIIQGWMYHGNLAAQFASFLNGNKIPIVWSIHYSIDSLESDKKMTVAIIKFSAYISRLPKQVLFVSQNSKLQHEALGYSSKNSCIIPNGFDTISFSPSLTERVDVRSELSLPHESLLIGLICRYHPMKDHANFIQAAALFLKEHPNINFLMIGQGVDRDNPTLNKLIKELGIGDRISLLGERKDIPRLITSLDIFTSASAYGEAFPLVIGEAMSCGIPCVVTDVGDSGWIVGNTGKVIPPRNPQMLADAWKELIALGEEGRNILGKAARARITEDFALNSVVAKYELVYEKILSNMST	not soluble
SLKKILILDDETSVLNALQRQLIRNNWQVISFKHPATALDYAKHVFFPIVITDYRMPQMSGVEFLLEFQKLQPYAYKIMLSGQAGEYGMTEAINQAKIDYFIHKPWDNCQLLNQIDKGLNHYRQTIKHLLKTNSKRMSREDYLIWYEKLVEQACPSITKVKKNPLGWIEAEEG	not soluble
MVLQIMLLTKPVPLYPPYIDLCDFDFDDYPQLDKIFSSNEPWWLEQFNWGKIFLTYIGRNKSAHTYERFRNDVERFLLWSFIVKKKPIDQLRKSDLLEYADFCWQPPVDWIGTSNQERFKITNGYSAANELWFPYKIQAPKSLKSQFVIDKKKYRPSQQTLSSMFTAIIVFYNYLMAEDFCIGNPAQIAKKDCRHFIIDSQVKEIKRLTGSQWQFVLDTAVEMADENAMFERNLFVIASLKTLFLRISELSERPNWSPTMGHFWQDDDENWWLKIFGKSRKLRDITVPIDFLPFLERYRASRGLLGLPSSNENSILVEKVRGQGGMTSRHLRRLVQSVFDQAHENMRRSEGENKALKLKEASAHWLRHTGASMEIERGRPLKDISEDLGHASMATTDTVYVQSENKKRAESGKRRKVD	not soluble
MGSDKIHHHHHHMIHFSINKNLFLQALNTTKRAISSKNAIPILSTVKIDVTNEGITLIGSNGQISIENFISQKNEDAGLLITSLGSILLEASFFINVVSSLPDVTLDFKEIEQNQIVLTSGKSEITLKGKDSEQYPRIQEISASTPLILETKLLKKIINETAFAASTQESRPILTGVHFVLSQHKELKTVATDSHRLSQKKLTLEKNSDDFDVVIPSRSLREFSAVFTDDIETVEIFFANNQILFRSENISFYTRLLEGNYPDTDRLIPTDFNTTITFNVVNLRQSMERARLLSSATQNGTVKLEIKDGVVSAHVHSPEVGKVNEEIDTDQVTGEDLTISFNPTYLIDSLKALNSEKVTISFISAVRPFTLVPADTDEDFMQLITPVRTN	soluble
ESRSQISRRNQDMLLSVLDLEKMTVDDIMVPRSEIIGIDINDDWKSILRQLSHSPHGRIVLYRDSLDDAISMLRVREAWRLMSEKKEFTKETMLRAADEIYFVPEGTPLSTQLVKFQRNKKKVGLVVNEYGDIQGLVTVEDILE	not soluble
MAHHHHHHMPLKFAPKALNPEDSMRLAVVHMLRHDNAVILQTFTGNRGSSATRHGRLLRFMPHFPFCPTEKTGETAEEAPHLVEIAPLQLPYWARGSSRETMWPAARTPEAVHPSPPHFPHFLAERSSSLFVSISLPHFDLPLVFASPRREQRCSRDCRAEWLPRAVMDRDVAATWDEMLSAFCAAWSAAVRIEKTPFALLPPSLSHPLLAEQPLGEGRVPLQDEPAASFRLDPIVVPRRKLDRQRSERMLPPILAVDVAGKWNDTPSVFKSQEAALQRRFLAVARTLERTTAAPSRPLIVASVETPLTSDAAGECERLELASVVVPPFMCTQRMKAGRPWREGGHAGGRDTLVQEHSESLFSRMPPCMTRATELRFPDGKHMRQTLTLRNTAKERLEKLCGLRPPRRHRQKMAECFSTSKFSIARSRELAAAALLPSTVLSAASRVKPPHCSERKRRRGDVPPPPPPLQLLPHVRATAVFAFSSWQPLTLEEEEEENNDTCCEEELKIAPWRVFPREVELQSFQQLLERRIERNGKAMRVGNDDEEEKWYHAAFVHDVNTMPLPYREVSDLVEDARLHYCYRLALHREKRRLGL	not soluble
MSLTLSDKDFEVLRDFIYNHCGIYFHTSKKYFLESRITRRIEATSSPNLMTYMGLLKSGPGKSDELLKLLTEITTNETCFFRNPPQLKALENVFLPEIVAAKGKIGFRKLRIWSAGSSSGEEAYTMAMLLLEKRATILKDWIIEIVGTDISETVLAQAREGVYNAYSVRNTPDYYKKKYFRQEPGERYVLSPDVKKLVSFNHLNLYEDAKMVFMKSFDFIFCANVLIYFDLASKTKVVQHYYNNLQPYGYFFVGQSESLHGVNDKFKTVHFPGGFAYKKEGHHHHHH	soluble
GMAEDQTVLAIDIGGSHVKIGLSTDGEERKVESGKTMTGPEMVAAVTAMAKDMTYDVIAMGYPGPVVHNKPLREPVNLGEGWVGYDYEGAFGRPVRIVNDALMQAIGSYNGGRMLFLGLGTGLGAAMIVENVAQPMEIAHLPYRKGKTYEHYVSEAYREKKGNAKWQKRVQDVVERLSAALEPDEVVIGGGNVERLENLPPKCRRGDNAMAFEGGFRLWKNADLIV	soluble
DRWIRPRGAFGGLPSLKSSFVLSESTVPGTNETVKTFLPYGSVINYYGYVKPGQAPDGLVDGNKKAYYLYVWIPAVIAEMGVRMISPTGEIGEPGDGDLVSDAFKAATPEEKSMPHWFDTWIRVERMSAIMPDQIAKAAKAKPVQKLDDDDDGDDTYKEERHNKYNSLTRIKIPNPPKSFDDLKNIDTKKLLVRGLYRISFTTYKPGEVKGSFVASVGLLFPPGIPGVSPLIHSNPEELQKQAIAAEESLKKAASDATK	soluble

Source: the DeepSol protein solubility set
